Results: patent US12466853B2, “Selective targeting of apoptosis proteins by structurally-stabilized and/or cysteine-reactive NOXA peptides” (priority 2017, dated 2025)

Legend:
U937 cells = test: Cell viability (CellTiter-Glo) and CalcuSyn synergy, U937; settings: U937 cells (BFL-1-dependent)
Procedure: Cell viability and caspase-3/7 activation was measured using CellTiter-Glo and Caspase-Glo 3/7 chemiluminescence reagents (Promega), respectively, and luminescence was detected by a Spectramax M5 microplate reader. Synergy of drug interactions was calculated using the CalcuSyn software (Biosoft).

full-length BFL-1 = target: T1, full-length BFL-1 (Homo sapiens, UniProt Q16548); test: Covalent crosslinking to full-length BFL-1, recombinant and HA-tagged expressed in 293T cells; format: binding; settings: recombinant and expressed in 293T cells; somewhat reduced efficiency vs C-terminally truncated species
T1 construct: Recombinant full-length BFL-1 (aa-175) containing an N-terminal hexahistidine tag; made in house
T1 sequence (Q16548 1-175): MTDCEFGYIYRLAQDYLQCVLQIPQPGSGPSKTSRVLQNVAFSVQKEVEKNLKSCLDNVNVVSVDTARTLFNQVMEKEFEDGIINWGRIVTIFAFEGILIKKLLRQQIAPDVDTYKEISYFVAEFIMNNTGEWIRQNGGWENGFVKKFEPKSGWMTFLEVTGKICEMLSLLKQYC
Text: We confirmed that both of our lead constructs could covalently crosslink to full-length BFL-1 protein, which bears a C-terminal helix that could potentially compete with D-NA-NOXA SAHBs for interaction at the canonical BH3-binding pocket in cancer cells. We generated recombinant full-length BFL-1 and expressed HA-tagged full-length BFL-1 in 293T cells, and then conducted crosslinking analyses in vitro and in treated cells, respectively.
Recombinant full-length BFL-1 (aa-175) containing an N-terminal hexahistidine tag was cloned into the PTYB1 vector (New England Biolabs) and purified as above except for the addition of a chitin affinity chromatography and DTT elution step. Protein purity and identity was confirmed by Coomassie staining and western blot analysis using a mouse monoclonal anti-His6 tag antibody (Abcam).
His-BFL-1ΔC C4S/C19S protein (5 μM) was pre-treated with 10 mM DTT in 50 mM Tris (pH 8.0) and 100 mM NaCl for 30 min at room temperature (final volume […]) and then combined with a 10:1 molar ratio of cysteine-reactive NOXA SAHB for an additional 1-hr incubation at room temperature. The samples were then boiled in 3× loading buffer with DTT and electrophoresed on 12% Bis-Tris gel, then subjected to Coomassie staining.

FLAG-MCL-1 / tBID = target: T2, FLAG-MCL-1 / tBID (Homo sapiens, UniProt Q07820); test: MCL-1/tBID complex disruption in 293T lysates; format: binding; settings: FLAG immunoprecipitation
T2 construct: expressed in transfected cells; host or cells: 293T (lysate)
Procedure: To evaluate the capacity of biotinylated SAHBs to compete with tBID for interactions with BFL-1 and MCL-1, 293T cells were transfected with either HA-BFL-1ΔC C4S/C19S or FLAG-MCL-1 in the p3XFLAG-CMV-10 vector (Sigma) as above. After 24 hr, cells were trypsinized, washed with PBS, lysed in 1% CHAPS buffer, and the supernatant collected for protein concentration determination by BCA kit. Lysate samples (0.5 mg) were incubated with 0.25 μM recombinant tBID (R&D Systems) and 5 μM biotinylated NOXA SAHBs for 6 h at RT. The mixtures were then subjected to HA or FLAG immunoprecipitation, followed by western analysis using 1:1000 dilutions of HA (Sigma Aldrich, #12CA5), FLAG (Sigma-Aldrich, F7425), and BID (Santa Cruz sc-11423) antibodies.

MCL-1 = target: T3, MCL-1 (Homo sapiens, UniProt Q07820); test: MCL-1 engagement in A375P lysates (streptavidin pulldown, MCL-1 western); format: binding; settings: biotinylated SAHB
T3 construct: endogenous protein in lysates from the A375P melanoma cell line; endogenous in cells; host or cells: A375P melanoma cells (lysate)
Procedure: Cultured A375P and U937 cells were trypsinized or harvested, respectively, washed with PBS, and lysed by incubating with 1% CHAPS lysis buffer (1% CHAPS, 150 mM NaCl, 50 mM Tris pH 7.4, 100 μM DTT). The protein concentrations of the soluble fraction were measured using a BCA kit according to the manufacturer's instructions (Thermo Scientific). Lysate samples (1 mg) were incubated with vehicle or C-terminally biotinylated NOXA SAHBs (30 μM) overnight in 1% CHAPS lysis buffer at 4° C. Biotin capture was accomplished by incubating the mixture with high-capacity SA agarose (Thermo Scientific) for 2 hours at 4° C., followed by centrifugation and washing the pelleted beads three times with lysis buffer (1 mL). Bead-bound proteins were eluted by boiling in 10% SDS containing 10 mg/mL biotin for 10 minutes and then subjected to electrophoresis and western blotting using BFL-1 (Abcam, #125259) and MCL-1 (Rockland #600-401-394S) antibodies.

His-BFL-1ΔC = target: T4, His-BFL-1ΔC (Homo sapiens, UniProt Q16548); test: Streptavidin pulldown from recombinant protein mixture, BFL-1; format: binding; settings: equimolar mixture of recombinant MCL-1, BCL-XL, BFL-1 and biotinylated SAHB, silver stain
T4 construct: Recombinant anti-apoptotic BFL-1ΔC (aa 1-151) and its cysteine to serine mutants were cloned into PET17b; made in house; host or cells: Escherichia coli LOBSTR BL21(DE3)
T4 sequence (Q16548 1-151): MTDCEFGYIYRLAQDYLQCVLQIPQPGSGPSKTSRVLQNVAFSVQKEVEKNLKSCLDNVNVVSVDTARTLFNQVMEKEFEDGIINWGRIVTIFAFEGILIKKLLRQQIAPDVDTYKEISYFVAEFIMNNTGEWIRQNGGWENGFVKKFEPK
Procedure: WT His-BFL-1ΔC, BCL-XLΔC (tagless), and GST-MCL-1ΔNΔC (1 μM each) were combined and incubated with 3 mM DTT in PBS for thirty minutes at room temperature. Mixtures were treated with vehicle or the indicated C-terminally biotinylated NOXA SAHB (1 μM) for four hours and were then added to 30 μL PBS-washed high-capacity streptavidin (SA) agarose beads (Thermo Fisher Pierce) and incubated with rotation at room temperature for two hours. The beads were then washed three times with NP-40 lysis buffer (1% NP-40, 50 mM Tris pH 8, 100 mM NaCl, 2.5 mM MgCl2) and three times with PBS. To elute bound protein, beads were boiled for ten minutes with 10% SDS containing 10 mg/mL biotin. After elution, samples were boiled with 3×LDS and 2M DTT for twenty minutes. Gel electrophoresis using a 12% Bis-Tris gel was conducted on inputs (2%) and eluates (5 μL) and gels were developed using the Pierce silver staining kit (Thermo Fisher).

KG-1 cells = test: Cell viability (CellTiter-Glo) and CalcuSyn synergy, KG-1; format: cell-based, human; settings: KG-1 AML cells
Procedure: U937, MV4;11, OCI-AML-3, Jurkat, and KG-1 cells cultured in RPMI containing 10% FBS and penicillin-streptomycin were plated in 96-well plates (5×10^3 cells per well) and, after overnight incubation, treated with the indicated concentrations of D-NA-NOXA SAHB and/or AZD0156, Ku-60019, Ku-55933, AZD7762, olaparib, or S63845 (all from Selleck Chemicals) in RPMI supplemented with 5% FBS for the indicated durations. Cell viability and caspase-3/7 activation was measured using CellTiter-Glo and Caspase-Glo 3/7 chemiluminescence reagents (Promega), respectively, and luminescence was detected by a Spectramax M5 microplate reader. Synergy of drug interactions was calculated using the CalcuSyn software (Biosoft).

T2 sequence (Q07820 whole entry): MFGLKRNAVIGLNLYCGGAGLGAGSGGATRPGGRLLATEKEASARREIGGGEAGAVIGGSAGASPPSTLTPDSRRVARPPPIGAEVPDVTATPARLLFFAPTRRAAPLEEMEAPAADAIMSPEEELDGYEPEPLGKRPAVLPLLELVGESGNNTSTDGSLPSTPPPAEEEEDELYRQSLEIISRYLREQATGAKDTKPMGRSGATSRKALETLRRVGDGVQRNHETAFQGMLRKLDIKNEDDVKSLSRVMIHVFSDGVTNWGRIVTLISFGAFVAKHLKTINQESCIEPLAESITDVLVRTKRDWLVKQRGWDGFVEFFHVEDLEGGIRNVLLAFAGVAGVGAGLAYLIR

JAT8LREFGDXLNFRQ [D-NA-NOXA-15 R31E]
cytotoxicity, single agent (U937 cells; listed as D-NA-NOXA SAHB-15 R31E): responsive | cytotoxicity, single agent (U937 cells; listed as NOXA-15 R31E SAHB): selective cytotoxicity | covalent crosslinking to full-length BFL-1 (full-length BFL-1): covalent crosslinking to recombinant and expressed full-length BFL-1 | dissociation of FLAG-MCL-1/tBID interaction (FLAG-MCL-1 / tBID): neither D-NA- nor Ac-NOXA15 R31E is able to dissociate the interaction | MCL-1 engagement (MCL-1): approximately equivalent binding to MCL-1 | BFL-1 binding / pull down (His-BFL-1ΔC): striking competitive advantage for BFL-1 targeting over its acetylated counterpart | cytotoxicity, single agent (KG-1 cells): dose-responsive cytotoxicity
